Source: patent publication US20230365956A1

Tests used:
[1] = target: SARS-CoV-2 RBD variant Gamma (K417T, E484K, N501Y) (Sino Biological) (SARS-CoV-2) (UniProt P0DTC2); experiment: BLI, affinity format: response at highest analyte concentration
[2] = target: SARS-CoV-2 RBD variant Lambda (L452Q, F490S) (Sino Biological) (SARS-CoV-2) (UniProt P0DTC2); experiment: as above
[3] = target: SARS-CoV-2 RBD variant Alpha (N501Y) (Sino Biological) (SARS-CoV-2) (UniProt P0DTC2); experiment: as above
[4] = target: SARS-CoV-2 RBD variant Beta (K417N, E484K, N501Y) (Sino Biological) (SARS-CoV-2) (UniProt P0DTC2); experiment: as above
[5] = target: SARS-CoV-2 RBD variant Kappa (L452R, E484Q) (Sino Biological) (SARS-CoV-2) (UniProt P0DTC2); experiment: as above
[6] = target: SARS-CoV-2 RBD variant Delta (L452R, T478K) (Sino Biological) (SARS-CoV-2) (UniProt P0DTC2); experiment: as above
[7] = target: SARS-CoV-2 RBD variant Gamma (K417T, E484K, N501Y) (Sino Biological) (SARS-CoV-2) (UniProt P0DTC2); experiment: BLI, avidity format: biotinylated RBD on SA sensor, binder in solution
[8] = target: SARS-CoV-2 RBD variant Lambda (L452Q, F490S) (Sino Biological) (SARS-CoV-2) (UniProt P0DTC2); experiment: as above
[9] = target: SARS-CoV-2 RBD variant Alpha (N501Y) (Sino Biological) (SARS-CoV-2) (UniProt P0DTC2); experiment: as above
[10] = target: SARS-CoV-2 RBD variant Beta (K417N, E484K, N501Y) (Sino Biological) (SARS-CoV-2) (UniProt P0DTC2); experiment: as above
[11] = target: SARS-CoV-2 RBD variant Kappa (L452R, E484Q) (Sino Biological) (SARS-CoV-2) (UniProt P0DTC2); experiment: as above
[12] = target: SARS-CoV-2 RBD variant Delta (L452R, T478K) (Sino Biological) (SARS-CoV-2) (UniProt P0DTC2); experiment: as above
[13] = target: SARS-CoV-2 RBD variant Gamma (K417T, E484K, N501Y) (Sino Biological) (SARS-CoV-2) (UniProt P0DTC2); experiment: BLI, avidity format: response at highest analyte concentration
[14] = target: SARS-CoV-2 RBD variant Lambda (L452Q, F490S) (Sino Biological) (SARS-CoV-2) (UniProt P0DTC2); experiment: as above
[15] = target: SARS-CoV-2 RBD variant Alpha (N501Y) (Sino Biological) (SARS-CoV-2) (UniProt P0DTC2); experiment: as above
[16] = target: SARS-CoV-2 RBD variant Beta (K417N, E484K, N501Y) (Sino Biological) (SARS-CoV-2) (UniProt P0DTC2); experiment: as above
[17] = target: SARS-CoV-2 RBD variant Kappa (L452R, E484Q) (Sino Biological) (SARS-CoV-2) (UniProt P0DTC2); experiment: as above
[18] = target: SARS-CoV-2 RBD variant Delta (L452R, T478K) (Sino Biological) (SARS-CoV-2) (UniProt P0DTC2); experiment: as above
[19] = target: SARS-CoV-2 RBD variant Gamma (K417T, E484K, N501Y) (Sino Biological) (SARS-CoV-2) (UniProt P0DTC2); experiment: BLI, affinity format: binder on AHC sensor, RBD in solution
[20] = target: SARS-CoV-2 RBD variant Lambda (L452Q, F490S) (Sino Biological) (SARS-CoV-2) (UniProt P0DTC2); experiment: as above
[21] = target: SARS-CoV-2 RBD variant Alpha (N501Y) (Sino Biological) (SARS-CoV-2) (UniProt P0DTC2); experiment: as above
[22] = target: SARS-CoV-2 RBD variant Beta (K417N, E484K, N501Y) (Sino Biological) (SARS-CoV-2) (UniProt P0DTC2); experiment: as above
[23] = target: SARS-CoV-2 RBD variant Kappa (L452R, E484Q) (Sino Biological) (SARS-CoV-2) (UniProt P0DTC2); experiment: as above
[24] = target: SARS-CoV-2 RBD variant Delta (L452R, T478K) (Sino Biological) (SARS-CoV-2) (UniProt P0DTC2); experiment: as above

What does the source list for Cilgavimab (antibody)?
Response [1]: 0.428 nm shift; Response [2]: 0.236 nm shift; Response [3]: 0.452 nm shift; Response [4]: 0.438 nm shift; Response [5]: 0.322 nm shift; Response [6]: 0.357 nm shift; Kd [7]: 0.193 nM; koff [7]: 7.42e-05 s⁻¹; kon [7]: 385000 M⁻¹ s⁻¹; Kd [8]: 0.0815 nM; koff [8]: 2.37e-05 s⁻¹; kon [8]: 291000 M⁻¹ s⁻¹; Kd [9]: 0.124 nM; koff [9]: 4.26e-05 s⁻¹; kon [9]: 344000 M⁻¹ s⁻¹; Kd [10]: 0.273 nM; koff [10]: 9.67e-05 s⁻¹; kon [10]: 355000 M⁻¹ s⁻¹; Kd [11]: 0.204 nM; koff [11]: 6.08e-05 s⁻¹; kon [11]: 298000 M⁻¹ s⁻¹; Kd [12]: 0.0481 nM; koff [12]: 1.61e-05 s⁻¹; kon [12]: 335000 M⁻¹ s⁻¹; Response [13]: 0.657 nm shift; Response [14]: 0.727 nm shift; Response [15]: 0.697 nm shift; Response [16]: 0.473 nm shift; Response [17]: 0.628 nm shift; Response [18]: 0.525 nm shift; Kd [19]: 2.82 nM; koff [19]: 0.0011 s⁻¹; kon [19]: 392000 M⁻¹ s⁻¹; Kd [20]: 9.81 nM; koff [20]: 0.00348 s⁻¹; kon [20]: 354000 M⁻¹ s⁻¹; Kd [21]: 2.44 nM; koff [21]: 0.000981 s⁻¹; kon [21]: 401000 M⁻¹ s⁻¹; Kd [22]: 1.43 nM; koff [22]: 0.000631 s⁻¹; kon [22]: 441000 M⁻¹ s⁻¹; Kd [23]: 9.89 nM; koff [23]: 0.00364 s⁻¹; kon [23]: 368000 M⁻¹ s⁻¹; Kd [24]: 7.34 nM; koff [24]: 0.00321 s⁻¹; kon [24]: 438000 M⁻¹ s⁻¹
